Test: protease stability score; higher = more stable; yeast display proteolysis, trypsin and chymotrypsin;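 further: relative to predicted unfolded state with 0 unfolded-like and 1 meaning tenfold more protease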
Work on “SEHDEQAEDWTRKHIHWFETGDEELLETLLDPNTRHIVDGQEYHGRENLRRMFHYLLSFMGIKYVRLTNHEVVGDKAHIHMTTNVNGQHTRLILHLIVINGRVHTIEIRVR” yielded a protease stability score of 0.544.
With “DKIKHLEDEIEKIFFETIETGDEHLFNQLVDPNVRVRIGDKHSVGREHVERVEREHREHMGVDHVEIRIHDSRTFNGVIHIEGKLHYHVNGRRHEHRIHIFLVVWDGVVRHLEIEIR” the protease stability score was 0.305.
In the case of “NEEDEFMEVAVELMERTLKTGDERLLSELVDPNARIEFNGREWHGRKFLETLWRELTKKFPNMKVMFKIEYINSFEGHIEIEGILESNFDGRVESRRVHYNVSKINGRWIIEEIEIQ”, the protease stability score is reported as 1.35.
In the case of “REEEEVVREIARRVIKSWITGNEHDMQEFADPHVRIFIGDKEIIGMEILNEILHRIKNITIRINMRHVDVQGDKVDLEGELEIRVNGQTERHDSRHHFDVVNGRIKIIEIQWD”, the protease stability score is reported as 0.918.
Work on “DEEEEKLKKWADDTIQLLRTGDEEDLYKMLDPHARTEVNGRELHGREEMFKVLKTIWDKVKGIKFLHRDHRLYNGRVEIHGELVIGDKIHKVHIIVLIINGKIKEVEIHIH” yielded a protease stability score of 1.39.
For “TEEHHFAERVVREWLKLYYTGDEERNETLADPNVKLDVNGRHYHGRESVSEFLREVYEHWRIREFHIHEFDVFNGVSHVDGELILEINGQKHRYRVRIIIVVINGRLKHIELNQV”, the protease stability score was 1.56.
“DREHREREELLNETNKAIATGDEETLRRLFDPNVQIEQGEYHHHGWEWVKKLMEEMRIEVEHVHDRRVDMFENHVRVDTHVHLRFIIGDKIFHVNLRQEIVMHKVNGVWIFKSFKYH” showed a protease stability score of 1.4.
For “DETEEEVRKFVEESVKQNNTGNEDFAKRLADPNARFEQGDKELHGREEMRRVLVELWFEDYRIERLHVQGNKVEVEVVVHGVVNGKHQEVRVIIILLKINGRWVFRDVTVK”, the protease stability score was 0.648.
“DEDDELEDKFEEILRYSLHTGDWEEWRKRVDPHVKLIINGREIIGMERAAKFFIDLERKLGVDVKHHEIRHEDKQGDKLHLETRVELRQGDKVIILHMHLHLEKINGQWIIREVRFD” showed a protease stability score of 1.47.
“DEKEKLKQLARKFHKAMQTGDEDELKKNVDENVRADYGDRRYHGSEELAKWLREMKTKVDHLSMTIKDIRVKGDRAEIELEMTFDHNGRQETRQFTLQAQVHNGSLKIVQIRQS” showed a protease stability score of 1.47.
“TEEDERAKHWAERWIRLLETGDFEILTELLDPNVRVEIDINGKKIELHGMETISEDLRRRLEELGFKHFHIRDMKSQGDKSRVRGEVEVNGKPVDVHIVLNIVDGKLKTFRFENK” gave a protease stability score of 1.35.
In the case of “SEEDERTYKVAKDWHEALQTGNEEIMERLLDPHVRIDVVVDGKKSHKHGMEVVSETLRRIREHLRMKWEIHRVDAQGDKLFVDGRYHIEVGDKKEHYIMHVLMIVIDGRLHSLTIRNE”, the protease stability score is reported as 1.1.
“DEDTKRAEHIMRMFIHSMLTGDEKTTHELLDPEARVNINGVDLHGRETLLEHHHRWLHELRIEDMHTEHYEVQGDYVHLHTREVVVVDGRRIELTTTFLLLKVDGRWVWTHIHVK” gave a protease stability score of 0.997.
Sequence “SEDFHRIFHMLELIIRAWITGDEELLEKLADPHVRIDIDGVDIVGMELVSTFLHEIRFDLKQIRFKDIHVVNGRIRLHGESDVHVQIGDKEYEIRSEEEWIVTKVNGQWRLTEVRYL” has a protease stability score of 2.08.
Work on “SHVEELSHEVTRWVDIALQTGDERVIDEYLDPNARIDVGDKHFIGREEMSEFYSEFSRRVKNLKLSRYHKKDERIIGNKVILHGKLNVNINGRSHEIDTEIVSMKVNGRWLVEKEIVN” yielded a protease stability score of 0.302.
“SEKEKLMHDIIEKYMRNLETGNEEEYAKLADPNTRLHYGNKHRVGWKEIVHTLRHWRIHIRDSEIDSIHNIDGQAFVKGKRKGEINVDGVNIDTTFDVDIIINVFDGRLKEIEIRIH” gave a protease stability score of 0.068.
Work on “DEREEEAERIMRLFQEFERTGDEDMLRHLVDPDARWVVGDKFQHGWHHFHRLLHHLRVRDLKPKSLHIDVQGDKVEVILHQEMDGEINGKRVIYHVVVIIIVNKFNGRWRNETVEVRFH” yielded a protease stability score of 0.843.
For “DEHQEEIKEMFRRMIHALETGDEDFFNHLADPHVLFHEHFNGRSFELHGREEFSKWLQSHREEIRLRNVHYHDIRIYNGVVHFDGRIVWHQGDKTIDRKVHWRTFVIDGRAKKVEIHVK”, the protease stability score was 0.621.
With “SEDENLIEEFLRRLMKWHNTGNFDEILNMVDPNTRIIVGDKFHHGRDALRYMWEFLGVDHVRIHVKRQEIIGDKVHNDTELEVNVNGKNLRIKEKLVVIKVNGVWILERIEIQ” the protease stability score was 1.48.
“DEDERLAEEFFEKFTRDIYTGDWRALRELLDPNVRLHINGRNHHGREELLYFEIEIYRRADHVEHRLREVTLFDGRVHVDVEIILHQGDKLIVLHVILFMEKVDGRWILRRKEVR” gave a protease stability score of 1.5.
Work on “SERDRIAKELKDILRSSRETGDERMMEELADPNVRFEINGVTIIGREEFYRWMSEWRLELEHSNDHDEREFDGQVNVDGTLVMRFTVNGQERREKVRITIHFLKVDGRWILHRIIIH” yielded a protease stability score of 2.03.
Sequence “HEDEHKWERAFRIWIHALITGDEETTNELMDPNTRLNFNGVDFIGREDMIELIRHIRIHREHITHVEIRTFNGVLHVHMHVRRDGNINGQRRNTDVEIHIVIFKVNGRWVLHSTTIVVN” has a protease stability score of 2.23.
Work on “DEDEKIARDQLEHFFHSVQTGNEDELRRLLDPNTYIDINGRTYHGREEVVKWMVHWFEHARLRRVHIRHSRSIGDKIILDTKMNVDINGVERHLDVNVIYLKVDGKWINHSEIVK” yielded a protease stability score of 1.56.
Sequence “SEDKEAFHRVMKLLLHAWRTGDEDREKELFDPNVRFIIGDKIIIGREEWLKLLRRIDHLEVDLDIKRLEVIGDKIKAEFRLHEILKIDGVEIHQEHEVRLHLHKINGRWIIERVHVE” has a protease stability score of 0.845.
With “DHLEDDLDHYIRVLIKSWQTGDEELTEKLIDPRVRVEVGDKEFHGRKIFSEIAVHWRIKHHTIEHINTVGDKATIHSHVVLHFDGREITTTTIYFIEKVNGKWLLKSMHIQ” the protease stability score was 2.5.
Sequence “DEMDHWVMEMFEHLLKLFLTGDEEKWERLADPNVKTRFIINGKDVRLHGREHFKKLVDELRITSVDLRDIRAVGNKAEVEGRVEGEFDGQTHILDMRVRFEIINGKLKKEEYVIR” has a protease stability score of 1.27.
In the case of “SETERYNEELLTKWFHAEHTGNFEMLQRLIDPHARIDINGVEHIGWRQFTKSLEDFGIDHIHHLKIDHFRVFNGRLFIDVTTDGTINGQRHKTKVLIRIVLYNGVIHEMSIEWV”, the protease stability score is reported as 1.33.
With “SSHEEYMIRLVLQIIRLYLTGDEETIRKMADPNTYMKITIGDKDIEAHGREDVIRVREEIRKQIRIHHVDVTSIKVIDGRLVIHGILDGEYDGKRDEVDVRIEIIIVNGKWTSEHARVH” the protease stability score was 1.05.
With “SEEEKHLEHMARMMVEALMTGDEKLLNHLLDPNVRVEHSINGVEITDHGWHLYVKWVRDLGIDHIYFKDMHHQGNKTHLNIEIEINGKHIETRLLLVIVNGRIHIIKHEIK” the protease stability score was 2.08.
Sequence “DEDKEIADNFLKQLLRDIQTGDEDSFIERLDPNARLQVGDKHVHGMDEVLRTRREWVKLMGADHIHHVEVNHVHIQGDKVHMDVEVDVEFNGKRRRLKSHLILTKVDGQWIITMEIIK” has a protease stability score of 1.08.
Work on “SDEEKHAEEYHRQLTRDIMTGDEHILHELVDPHVLERVDGKDNHGWEEIAHFWVRFKNMRMHIEIHEIRHIGDFVDSDIKIRVVYNGKDITMRVHFHVEKINGRWLTTHIRIK” yielded a protease stability score of 0.352.
For “DEEEELLTRTSELFSHNLHTGDEDSLIHLADPHTRIDVDGVQLHGMETWSEQFSRDMHEHGARSEVHYKRREVVGDKAKIHLVLTITYNGRTIIRNIELRMTKIDGVWILRHISYH”, the protease stability score was 1.26.
In the case of “SELDHLTKHAMELWLRLLETGDEHSEHRLADPNVRLDVNGKELHGMEEILEHLSRLGIKVFRVKDTELVGNKLHLIGELEFDGKRVETHVIAWKINGRWHLHRREIR”, the protease stability score is reported as 1.57.
Work on “SEEEKEARESIHRFEAALKTGNEESLFELLDPHVRIDVNGQELHGWKEWKHIVHENKKRVKGARFRIHHIEIINGRIHLDGEVSINGKDIRTEYIIEKIDGVWRLTEVIIR” yielded a protease stability score of 1.28.
“SEDERLLREAVEELIHSWETGDFDHVLRMFDPDVRLHFEGRHTHGREVYEQQLRFLWERFKNVRITVEYKHVEVINGKAIVHGKLLLIIGDKTVELTNEIYVRKINGKWLSEEIRIK” showed a protease stability score of 1.44.
“DEKTKEVEHLTEYLREVWETGDFESLHEMMDPHVRVDIGDKHVHGREAVAHHFRKHLENWGVTRFRIEFHVRDVRDINGVVHLDTELRILFDGVLITMRTRFIIEKINGRWVFREVIVR” gave a protease stability score of 2.63.
“EEEDRIFKEARRLLEYVSETGDETTLKKLVDPHARTHIGDKLLHGREWLHDLLRKAGEDRFHFIIHHVDLQGDKIQMFGQLVIGDKLIHVEIIVNKIDGRWFVESIKID” gave a protease stability score of 0.889.
“HEEEEEVKEALKELKELLETGDEDLWRRLADPDTRFELEFEGRHFHLHGWEAVLHFIREIKRRFKNVQFDWKRLNTQGNFAHMHVEIRVGDKIIHLDIIVLKYNGQWLDKRVRIFFE” gave a protease stability score of 1.91.
“SEDEELMRRAEDFIIETWETGDWELLHHLADPRVQLDINGRTEHGRENMNEALRRWLDDLGFDHHRVRKKHVIDGRVILDFEIFQGDKEVHLHLHNVVVNGRMKSVHFKLQDN” gave a protease stability score of -0.052.
With “KEHEEILHHLAELFFENLLTGDWRLLTELMDPSARVHIGEWRSHGREHASRVMLEEFRQLRVRDVKLTDLKVIDGRMEIDTRMRIEVDGREHIHTIHIRIYIYNGRMDEIHLEVR” the protease stability score was 0.125.
Work on “SEVEEDTKRVLELLRESWKTGDEHSIKEMLDPNVKILVGDKEFHGMEDWHRIYKRFDYISIRHVRLKDSRHINGVVYLIIHIESEYRIGDKTTEKRYDASIINEKVDGRWIIRSIEIH” yielded a protease stability score of 1.91.
Sequence “DEDHDVYHRLVKITLSLLATGDESWMKKLFDPHVRVNINGVDVHGREWLLKLFRLLLERLGVDHMTAHVHDFRQYDGRVHADTTEVYDVDGREIRFKTEVIIDKFNGRWFVTFVIII” has a protease stability score of 1.78.
Sequence “DENHEIVKRALEIIVVALLTGDFDTLTELFDPEVRIQVGDKHLHGREDFWKWLKELITRADHNDFKVESIEVQGDKMVIDGEMIIHYNGREHRYKTEVIILKIDGRWVVKRIHYE” has a protease stability score of 1.65.
“DDKHEINRELTRLFFETWLTGDEDWFQKMLDPHVRVEVGDKRSHGREEAARMLREHFESLGIKHLEYKSIELQGDKTIIDGRLDVDGQTRNSKIKVLIIDGRLTHLHIKLE” showed a protease stability score of 1.01.
Sequence “DEEEHLLRRVSHFWARARKTGNEEVIRDLMDPNMRSTINGVEFHGREEHLHTLREWRVKSVHFEHVHVVDGRIEIKMREDGFVNGRETHFTLRITIVIIDGVVHHISIDLR” has a protease stability score of 0.787.
With “DEDEKYMQEFLERLWRDLYTGDEESLTRRMDPRTRVDINGVDIHGMERVTEHIKHLVDRADHIELIIHTVNNVDGRAHNDGILVIKVNGREIRIETHFVLLKVDGRWRIQSEEYR” the protease stability score was 0.399.
In the case of “HEDEEEMKKFIHRWENDLRTGDEESHRRLADPNTLLVVNGRRVHGMEAVLHIVREMRLHEVYIDDIRIINGRAHTELTVKGEIDGVKHWSHTHIHVTKVNGQWHIDTIRIL”, the protease stability score is reported as 0.663.
Sequence “DEEDDEAREVHERLVRAFKTGNEELLLKMADPNTRDLFVVDGRTIHLVGWEHWRISLHELRIHDQRIRRSHVIDGRVHSDWEIDVEFNGRRSRKKLEIRIEVVNGVTKSVEFIFR” has a protease stability score of 1.31.
Work on “TEEERIDHEYEERLKHSFETGDEETIKKMIDPNARVEIDGKDHHGREVMAHLISRIDVLHTVDTTDVSIQGDKINLNLRVHGHVNGKHIDRTLHVRIRKINGKWHIEHFKII” yielded a protease stability score of 1.04.
“DEEKETAHEIHRILIKAWITGDEDTLNELLDPNVRIDINGVDTHGMEELKRVFEEHKKEIRWKDVRPRHIHVINGQIHSDTDHNGVVNGVTRTRKAHWIIVVIDGKVHSIKFIIH” gave a protease stability score of 1.29.
